What was measured:
Assay in all cases: AlphaScreen or HTRF; saturation binding on HEK293 cells transfected with SNAP-ghrelin receptor (WT or mutants) labelled with SNAP-Lumi4-Tb; increasing concentrations of ghrelin-A2 in the presence or absence of 10 uM unlabeled ghrelin, 1 h at R.T.; HTRF ratio 665 nm/620 nm; one Kd for each of three experiments
[1] = target: N-terminal-SNAP-tagged ghrelin receptor Q302A (human) (UniProt Q92847)
[2] = target: N-terminal-SNAP-tagged ghrelin receptor F312A (human) (UniProt Q92847)
[3] = target: N-terminal-SNAP-tagged ghrelin receptor, wild type (human) (UniProt Q92847)

“ghrelin-A2 (full-length ghrelin labeled with the dye A2 on an additional cysteine at the C-terminal end) (peptide)” gave a Kd [1] of over 500 nM, a Kd [2] of 78 nM and a Kd [3] of 11 nM.

Reference: paper PMC8379176 (Nature Communications, 2021)
